In PMC2728148:
Changes are numbered by the printed parent chain. Where two headings read alike, the source gives them in different places.

B1: 34G/34C (dsDNA)
DNA 1: GTACCCGGGGATCCGTACGGCGCATCAGCTGCAG
DNA 2: CTGCAGCTGATGCGCCGTACGGATCCCCGGGTAC
B2: DNA50/DNA49 fork (dsDNA)
DNA 1: GGGACGCGTCGGCCTGGCACGTCGGCCGCTGCGGCCAGGCACCCGATGGC
DNA 2: TTTGTTTGTTTGTTTGTTTGTTTGCCGACGTGCCAGGCCGACGCGTCCC
B3: DNA50/RNA49 fork (DNA:RNA)
DNA: B2 DNA 1
RNA: UUUGUUUGUUUGUUUGUUUGUUUGCCGACGUGCCAGGCCGACGCGUCCC
B4: RNA50/RNA49 fork (dsRNA)
RNA 1: B2 DNA 1 with T9U, T15U, T22U, T30U, T47U
RNA 2: B3 RNA

What was measured:
Test in all cases: EMSA
[1] = target: T1, CSB wild-type (Homo sapiens, UniProt Q03468 1-1493)
T1 sequence (Q03468 whole entry): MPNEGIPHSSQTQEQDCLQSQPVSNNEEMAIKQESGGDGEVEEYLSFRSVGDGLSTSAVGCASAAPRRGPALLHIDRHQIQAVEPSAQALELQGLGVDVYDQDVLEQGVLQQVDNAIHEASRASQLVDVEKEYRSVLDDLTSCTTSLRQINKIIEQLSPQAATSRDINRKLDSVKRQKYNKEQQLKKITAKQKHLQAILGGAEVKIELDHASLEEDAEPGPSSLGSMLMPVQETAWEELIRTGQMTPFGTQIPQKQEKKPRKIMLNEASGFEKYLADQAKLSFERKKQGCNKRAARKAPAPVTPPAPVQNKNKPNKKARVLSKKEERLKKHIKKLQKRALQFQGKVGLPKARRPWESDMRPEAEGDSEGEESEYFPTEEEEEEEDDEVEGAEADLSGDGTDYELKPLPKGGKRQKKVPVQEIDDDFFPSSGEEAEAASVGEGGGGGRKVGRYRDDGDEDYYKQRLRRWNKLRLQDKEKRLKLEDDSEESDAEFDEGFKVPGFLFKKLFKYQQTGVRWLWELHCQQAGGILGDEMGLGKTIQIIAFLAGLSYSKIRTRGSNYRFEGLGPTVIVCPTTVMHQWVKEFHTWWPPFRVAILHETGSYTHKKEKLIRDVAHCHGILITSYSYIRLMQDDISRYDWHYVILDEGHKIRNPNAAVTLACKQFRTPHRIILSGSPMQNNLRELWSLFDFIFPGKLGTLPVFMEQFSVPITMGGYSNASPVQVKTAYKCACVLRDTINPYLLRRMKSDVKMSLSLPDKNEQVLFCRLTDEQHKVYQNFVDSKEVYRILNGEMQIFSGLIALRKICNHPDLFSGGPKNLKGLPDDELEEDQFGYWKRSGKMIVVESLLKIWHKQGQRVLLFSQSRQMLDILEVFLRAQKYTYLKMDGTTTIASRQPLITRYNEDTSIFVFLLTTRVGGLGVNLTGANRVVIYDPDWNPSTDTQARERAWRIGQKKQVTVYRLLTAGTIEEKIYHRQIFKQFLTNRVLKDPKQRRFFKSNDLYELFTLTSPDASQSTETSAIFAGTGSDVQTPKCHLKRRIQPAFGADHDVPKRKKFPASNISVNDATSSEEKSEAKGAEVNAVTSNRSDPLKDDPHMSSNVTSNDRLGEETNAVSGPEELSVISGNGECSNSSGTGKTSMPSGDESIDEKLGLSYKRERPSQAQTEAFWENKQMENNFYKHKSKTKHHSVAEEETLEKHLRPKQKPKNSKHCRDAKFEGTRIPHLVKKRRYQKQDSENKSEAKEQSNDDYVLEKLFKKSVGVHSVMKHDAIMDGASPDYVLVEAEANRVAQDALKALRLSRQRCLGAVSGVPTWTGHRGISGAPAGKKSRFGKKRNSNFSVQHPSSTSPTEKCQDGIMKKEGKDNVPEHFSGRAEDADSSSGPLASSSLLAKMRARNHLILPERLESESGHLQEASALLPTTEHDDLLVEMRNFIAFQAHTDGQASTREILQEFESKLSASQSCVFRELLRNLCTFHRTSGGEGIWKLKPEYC

[2] = target: T1, CSB wild-type; remark: listed apart in the source
[3] = target: T1, CSB wild-type; remark: listed apart in the source
[4] = target: T1, CSB wild-type; remark: listed apart in the source

Row | Binder | Kd [1] [nM] | Kd [2] [nM] | Kd [3] [nM] | Kd [4] [nM]
1 | B1 | 13.7 ± 1.1 | 20.5 ± 5.2 | 10.7 ± 0.6 | –
2 | B2 | – | – | – | 5.9 ± 0.6
3 | B3 | – | – | – | 13.4 ± 3.3
4 | B4 | – | – | – | 3.6 ± 1.5
